Source: PMC10786891, “Massively parallel profiling of RNA-targeting CRISPR-Cas13d”
Changes are numbered by the printed parent chain. Numbers in names are those of the source.

Molecular target: T1, EsCas13d, nuclease-dead (Eubacterium siraeum, UniProt B0MS50, R295A;H300A;R849A;H854A)
T1 sequence: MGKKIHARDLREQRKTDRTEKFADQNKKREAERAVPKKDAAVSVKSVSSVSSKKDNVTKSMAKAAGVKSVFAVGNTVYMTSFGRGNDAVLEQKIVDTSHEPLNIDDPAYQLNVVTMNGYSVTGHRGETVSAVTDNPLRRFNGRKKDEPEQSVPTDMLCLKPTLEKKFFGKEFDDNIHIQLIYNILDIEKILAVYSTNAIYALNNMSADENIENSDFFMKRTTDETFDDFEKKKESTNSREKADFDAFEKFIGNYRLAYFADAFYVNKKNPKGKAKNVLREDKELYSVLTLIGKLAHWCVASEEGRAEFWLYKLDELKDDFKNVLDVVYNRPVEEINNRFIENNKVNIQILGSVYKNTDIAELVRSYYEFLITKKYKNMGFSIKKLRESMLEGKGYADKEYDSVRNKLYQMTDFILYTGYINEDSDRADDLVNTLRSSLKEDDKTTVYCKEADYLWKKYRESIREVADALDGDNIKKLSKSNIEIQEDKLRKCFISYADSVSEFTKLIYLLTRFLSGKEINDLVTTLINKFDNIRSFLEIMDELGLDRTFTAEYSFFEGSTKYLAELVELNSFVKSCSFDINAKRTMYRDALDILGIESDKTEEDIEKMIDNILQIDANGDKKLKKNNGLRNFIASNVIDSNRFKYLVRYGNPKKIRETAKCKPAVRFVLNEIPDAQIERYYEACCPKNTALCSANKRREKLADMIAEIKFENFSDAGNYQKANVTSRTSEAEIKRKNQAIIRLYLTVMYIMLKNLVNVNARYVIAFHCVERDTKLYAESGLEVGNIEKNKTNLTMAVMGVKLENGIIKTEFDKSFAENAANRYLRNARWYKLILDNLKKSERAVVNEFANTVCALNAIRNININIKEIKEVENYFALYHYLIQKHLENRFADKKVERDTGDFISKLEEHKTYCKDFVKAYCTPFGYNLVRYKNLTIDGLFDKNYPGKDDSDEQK
Assay: crRNA (strand 1, pre-loaded); Mg2+; 40 mM Tris-HCl pH 7.5, 150 mM NaCl, 6 mM MgCl2, 1 mM DTT, 0.1% Tween-20, 0.2 mg/ml BSA; 25 C; 10 min per concentration, then washed
Conditions: tags: His6-TwinStrep-SUMO cleaved; N-terminal SNAP kept (SNAP-Surface 488); label: 3' end held by stalled T7 RNA polymerase

B1: target 1 MT 5'PFS CAU 3'PFS UCU (mixed)
RNA 1: CACCCGUGCAAAAAUGCAGGGGUCUAAAACUGAGCGGAUAACCUCUCUAUGG
RNA 2: GGGAAUGGAUCCACAUCUACGAAUUCCAUCCAUAGAGAGGUUAUCCGCUCAUCUAGAUCGGAAGAGCACACGU
- Kd: ~65 nM

B2: target 1 MT 5'PFS ACG 3'PFS AUC (mixed)
RNA 1: B1 RNA 1
RNA 2: B1 RNA 2 with C27A, A28C, U29G, U52A, C53U, U54C
- Kd: ~24.5 nM

B3: target 1 MT 5'PFS AUG 3'PFS AUG (mixed)
RNA 1: B1 RNA 1
RNA 2: B1 RNA 2 with C27A, A28U, U29G, U52A, C53U, U54G
- Kd: 49 ± 18 nM

B4: target 1 MT 5'PFS AUG 3'PFS AUU (mixed)
RNA 1: B1 RNA 1
RNA 2: B1 RNA 2 with C27A, A28U, U29G, U52A, C53U
- Kd: 11.4 ± 2.5 nM

B5: target 1 MT 5'PFS UGC 3'PFS AUA (mixed)
RNA 1: B1 RNA 1
RNA 2: B1 RNA 2 with C27U, A28G, U29C, U52A, C53U, U54A
- Kd: 16.5 ± 6 nM

B6: target 1 MT 5'PFS UGC 3'PFS AUG (mixed)
RNA 1: B1 RNA 1
RNA 2: B1 RNA 2 with C27U, A28G, U29C, U52A, C53U, U54G
- Kd: ~55.5 nM

B7: target 1 MT 5'PFS GCA 3'PFS CUC (mixed)
RNA 1: B1 RNA 1
RNA 2: B1 RNA 2 with C27G, A28C, U29A, U52C, C53U, U54C
- Kd: ~19.5 nM

B8: target 1 insC 3' of 12,insC 3' of 12 (mixed)
RNA 1: B1 RNA 1
RNA 2: GGGAAUGGAUCCACAUCUACGAAUUCGUACCAUAGAGAGGCCUUAUCCGCUCACCGAGAUCGGAAGAGCACACGU
- Kd: 18.3 ± 1.3 nM

B9: target 1 MT 5'PFS CAA 3'PFS ACC (mixed)
RNA 1: B1 RNA 1
RNA 2: B1 RNA 2 with U29A, U52A, U54C
- Kd: 14.8 ± 5.05 nM

B10: target 1 MT 5'PFS ACG 3'PFS AUA (mixed)
RNA 1: B1 RNA 1
RNA 2: B1 RNA 2 with C27A, A28C, U29G, U52A, C53U, U54A
- Kd: 16.5 ± 6.5 nM

B11: target 1 MT 5'PFS ACG 3'PFS AUG (mixed)
RNA 1: B1 RNA 1
RNA 2: B1 RNA 2 with C27A, A28C, U29G, U52A, C53U, U54G
- Kd: 45 ± 18.5 nM

B12: target 1 MT 5'PFS CAC 3'PFS UUU (mixed)
RNA 1: B1 RNA 1
RNA 2: B1 RNA 2 with U29C, C53U
- Kd: 7.15 ± 2.4 nM

B13: target 1 MT 5'PFS UGC 3'PFS AUU (mixed)
RNA 1: B1 RNA 1
RNA 2: B1 RNA 2 with C27U, A28G, U29C, U52A, C53U
- Kd: 18.6 ± 5.1 nM

B14: target 1 MT 5'PFS GAG 3'PFS UCU (mixed)
RNA 1: B1 RNA 1
RNA 2: B1 RNA 2 with C27G, U29G
- Kd: 29 ± 9 nM

B15: target 1 MT 5'PFS CCC 3'PFS AUU (mixed)
RNA 1: B1 RNA 1
RNA 2: B1 RNA 2 with A28C, U29C, U52A, C53U
- Kd: ~8 nM

B16: target 1 MT 5'PFS GGC 3'PFS AGC (mixed)
RNA 1: B1 RNA 1
RNA 2: B1 RNA 2 with C27G, A28G, U29C, U52A, C53G, U54C
- Kd: 9.95 ± 1.75 nM

B17: target 1 MT 5'PFS GUG 3'PFS CCG (mixed)
RNA 1: B1 RNA 1
RNA 2: B1 RNA 2 with C27G, A28U, U29G, U52C, U54G
- Kd: 11.7 ± 1.05 nM

B18: target 1 insA 3' of 11,insC 3' of 8 (mixed)
RNA 1: B1 RNA 1
RNA 2: B8 RNA 2 with C41U, C42A, U44A, A45U, U46C
- Kd: 16.7 ± 1.1 nM

B19: target 1 MT 5'PFS GAG 3'PFS UCC (mixed)
RNA 1: B1 RNA 1
RNA 2: B1 RNA 2 with C27G, U29G, U54C
- Kd: 55.5 ± 26.5 nM

B20: target 1 MT 5'PFS GGA 3'PFS AUG (mixed)
RNA 1: B1 RNA 1
RNA 2: B1 RNA 2 with C27G, A28G, U29A, U52A, C53U, U54G
- Kd: 34.5 ± 6.5 nM

B21: target 1 MT 5'PFS GGA 3'PFS AUA (mixed)
RNA 1: B1 RNA 1
RNA 2: B1 RNA 2 with C27G, A28G, U29A, U52A, C53U, U54A
- Kd: 29 ± 7 nM

B22: target 1 MT 5'PFS UGC 3'PFS AUC (mixed)
RNA 1: B1 RNA 1
RNA 2: B1 RNA 2 with C27U, A28G, U29C, U52A, C53U, U54C
- Kd: 52.5 ± 23 nM

B23: target 1 U8C,U19C (mixed)
RNA 1: B1 RNA 1
RNA 2: B1 RNA 2 with C27G, A28U, U29A, U33C, U44C, U52C, U54G
- Kd: 41.1 ± 2.3 nM

B24: target 1 MT 5'PFS GUG 3'PFS CCC (mixed)
RNA 1: B1 RNA 1
RNA 2: B1 RNA 2 with C27G, A28U, U29G, U52C, U54C
- Kd: 23 ± 4 nM

B25: target 1 MT 5'PFS CUG 3'PFS AGG (mixed)
RNA 1: B1 RNA 1
RNA 2: B1 RNA 2 with A28U, U29G, U52A, C53G, U54G
- Kd: 66.5 ± 33 nM

B26: target 1 MT 5'PFS CAU 3'PFS UCA (mixed)
RNA 1: B1 RNA 1
RNA 2: B1 RNA 2 with U54A
- Kd: ~35 nM

B27: target 1 MT 5'PFS GGA 3'PFS AUU (mixed)
RNA 1: B1 RNA 1
RNA 2: B1 RNA 2 with C27G, A28G, U29A, U52A, C53U
- Kd: 17.6 ± 3.55 nM

B28: target 1 MT 5'PFS CCC 3'PFS AUG (mixed)
RNA 1: B1 RNA 1
RNA 2: B1 RNA 2 with A28C, U29C, U52A, C53U, U54G
- Kd: 31 ± 14 nM

B29: target 1 MT 5'PFS CCU 3'PFS CAA (mixed)
RNA 1: B1 RNA 1
RNA 2: B1 RNA 2 with A28C, U52C, C53A, U54A
- Kd: 55 ± 19 nM

B30: target 1 MT 5'PFS GUG 3'PFS CCA (mixed)
RNA 1: B1 RNA 1
RNA 2: B1 RNA 2 with C27G, A28U, U29G, U52C, U54A
- Kd: 46 ± 7.5 nM

B31: target 1 MT 5'PFS GAG 3'PFS UCA (mixed)
RNA 1: B1 RNA 1
RNA 2: B1 RNA 2 with C27G, U29G, U54A
- Kd: ~47.5 nM

B32: target 1 MT 5'PFS CCU 3'PFS CAC (mixed)
RNA 1: B1 RNA 1
RNA 2: B1 RNA 2 with A28C, U52C, C53A, U54C
- Kd: 15.2 ± 5.15 nM

B33: target 1 MT 5'PFS CCU 3'PFS CAU (mixed)
RNA 1: B1 RNA 1
RNA 2: B1 RNA 2 with A28C, U52C, C53A
- Kd: 13.5 ± 5.5 nM

B34: target 1 MT 5'PFS GAG 3'PFS UCG (mixed)
RNA 1: B1 RNA 1
RNA 2: B1 RNA 2 with C27G, U29G, U54G
- Kd: 42 ± 16 nM

B35: target 1 MT 5'PFS GGA 3'PFS AUC (mixed)
RNA 1: B1 RNA 1
RNA 2: B1 RNA 2 with C27G, A28G, U29A, U52A, C53U, U54C
- Kd: 22.5 ± 9 nM

B36: target 1 MT 5'PFS GCA 3'PFS CUG (mixed)
RNA 1: B1 RNA 1
RNA 2: B1 RNA 2 with C27G, A28C, U29A, U52C, C53U, U54G
- Kd: 11.9 ± 3.35 nM

B37: target 1 MT 5'PFS CCU 3'PFS CAG (mixed)
RNA 1: B1 RNA 1
RNA 2: B1 RNA 2 with A28C, U52C, C53A, U54G
- Kd: ~26 nM

B38: target 2 MT 5'PFS CGG 3'PFS CAC (mixed)
RNA 1: CACCCGUGCAAAAUUGCAGGGGUCUAAAACCUUCUCCAAAUUGUUUCAUCCU
RNA 2: GGGAAUGGAUCCACAUCUACGAAUUCCGGAGGAUGAAACAAUUUGGAGAAGCACAGAUCGGAAGAGCACACGU
- Kd: 6.8 ± 1.3 nM

B39: target 2 MT 5'PFS CGG 3'PFS CAA (mixed)
RNA 1: B38 RNA 1
RNA 2: B38 RNA 2 with C54A
- Kd: 3.4 ± 0.5 nM
